Laboratory results reported in article doi:10.1101/2024.07.30.605722 (bioRxiv, 2024).

Legend:
PDIA6 a^0 domain (human) = test: co-sedimentation
native MS = target: the molecule itself; test: native MS

Molecule	b amount left in the supernatant (PDIA6 a^0 domain (human)) [%]	stoichiometry N (native MS)
MBP fusion protein of PDIA6 b domain (domain or fragment)	60	–
PDIA6 (enzyme, human, UniProt Q15084 20-440, looked up) LYSSSDDVIELTPSNFNREVIQSDSLWLVEFYAPWCGHCQRLTPEWKKAATALKDVVKVGAVDADKHHSLGGQYGVQGFPTIKIFGSNKNRPEDYQGGRTGEAIVDAALSALRQLVKDRLGGRSGGYSSGKQGRSDSSSKKDVIELTDDSFDKNVLDSEDVWMVEFYAPWCGHCKNLEPEWAAAASEVKEQTKGKVKLAAVDATVNQVLASRYGIRGFPTIKIFQKGESPVDYDGGRTRSDIVSRALDLFSDNAPPPELLEIINEDIAKRTCEEHQLCVVAVLPHILDTGAAGRNSYLEVLLKLADKYKKKMWGWLWTEAGAQSELETALGIGGFGYPAMAAINARKMKFALLKGSFSEQGINEFLRELSFGRGSTAPVGGGAFPTIVEREPWDGRDGELPVEDDIDLSDVELDDLGKDEL	–	2
